Residue numbers refer to the chain shown, from its start. In names and notes the source's numbering stands.
Assays:
ATRR (ATR1R2) [1] = target: T1, ATRR (ATR1R2) (Aspergillus nidulans, UniProt A0A1U8QWA2); assay: carboxylic acid reductase steady-state kinetics; format: biochemical; details: substrate inhibition
T1 sequence (A0A1U8QWA2 1-1270): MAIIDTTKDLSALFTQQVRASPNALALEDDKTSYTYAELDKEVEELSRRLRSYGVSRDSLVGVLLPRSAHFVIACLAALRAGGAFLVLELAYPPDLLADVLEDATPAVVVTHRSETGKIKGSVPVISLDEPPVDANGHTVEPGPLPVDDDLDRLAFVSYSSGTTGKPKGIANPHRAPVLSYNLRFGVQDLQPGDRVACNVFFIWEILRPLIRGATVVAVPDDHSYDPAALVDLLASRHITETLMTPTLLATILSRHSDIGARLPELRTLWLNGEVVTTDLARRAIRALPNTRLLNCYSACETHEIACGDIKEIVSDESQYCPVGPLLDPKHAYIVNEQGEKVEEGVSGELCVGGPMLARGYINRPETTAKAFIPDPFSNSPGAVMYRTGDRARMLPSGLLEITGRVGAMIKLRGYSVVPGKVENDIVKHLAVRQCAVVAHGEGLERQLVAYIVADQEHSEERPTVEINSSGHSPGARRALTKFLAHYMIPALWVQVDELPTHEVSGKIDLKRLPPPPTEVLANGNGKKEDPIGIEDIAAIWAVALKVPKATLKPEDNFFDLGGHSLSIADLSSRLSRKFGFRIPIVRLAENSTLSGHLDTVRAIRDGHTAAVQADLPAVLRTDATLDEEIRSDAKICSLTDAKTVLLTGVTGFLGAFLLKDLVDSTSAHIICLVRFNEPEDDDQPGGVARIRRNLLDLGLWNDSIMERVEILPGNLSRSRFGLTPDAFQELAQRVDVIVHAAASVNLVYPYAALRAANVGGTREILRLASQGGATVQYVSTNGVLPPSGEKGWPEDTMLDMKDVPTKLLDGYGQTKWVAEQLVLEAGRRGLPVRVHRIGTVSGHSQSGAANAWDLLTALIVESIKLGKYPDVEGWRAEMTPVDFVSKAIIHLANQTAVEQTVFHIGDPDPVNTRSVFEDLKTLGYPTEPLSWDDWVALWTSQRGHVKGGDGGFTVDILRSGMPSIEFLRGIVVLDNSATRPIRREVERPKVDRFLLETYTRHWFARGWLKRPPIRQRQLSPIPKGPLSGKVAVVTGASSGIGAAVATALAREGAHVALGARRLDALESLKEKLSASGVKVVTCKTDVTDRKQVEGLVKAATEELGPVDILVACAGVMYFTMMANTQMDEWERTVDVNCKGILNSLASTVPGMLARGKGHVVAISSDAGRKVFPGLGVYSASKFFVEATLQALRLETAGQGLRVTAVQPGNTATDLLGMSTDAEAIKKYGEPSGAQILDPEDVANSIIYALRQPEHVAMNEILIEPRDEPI

ATRR (ATR1R2) [2] = target: T1, ATRR (ATR1R2); assay: glycine betaine reductase inhibition kinetics; format: biochemical
purified protein [3] = substrate: C[N+](C)(C)CC=O; assay: purified protein; details: NADPH as co-substrate
[4] = substrate: C[N+](C)(C)CC(=O)[O-]; assay: carboxylic acid reductase steady-state kinetics, NADPH oxidation; format: biochemical, Aspergillus nidulans; details: ATP and NADPH as co-substrates; R2 inactivated
purified protein [5] = substrate: CN(C)CC(=O)O; assay: purified protein; details: ATP and NADPH as co-substrates; fit with substrate inhibition
purified protein [6] = substrate: C[N+](C)(C)CC(=O)[O-]; assay: purified protein; format: biochemical, Aspergillus nidulans; details: holo-enzyme; ATP and NADPH as co-substrates

Molecule: CN(C)CC(=O)O [N,N-Dimethylglycine]
- Ki (ATRR (ATR1R2) [1]): 48000 ± 9000 µM

Molecule: CN(C)C [N(CH3)3H+Cl-]
- Ki (ATRR (ATR1R2) [2]): 2600 ± 500 µM

Molecule: C[N+](C)(C)CCO [Choline]
- Ki (ATRR (ATR1R2) [2]): 270 ± 30 µM

B1: ATRR (ATR1R2) (Aspergillus nidulans FGSC A4; Y812F) (protein)
chain: T1 sequence (A0A1U8QWA2 1-1270) with Y812F
- Km (purified protein [3]; R1 inactivated): 240 ± 30 µM
- kcat (purified protein [3]; R1 inactivated): 7.0 ± 0.2 s⁻¹

B2: ATRR (ATR1R2) (Aspergillus nidulans FGSC A4; Y1178F) (protein)
chain: T1 sequence (A0A1U8QWA2 1-1270) with Y1178F
- Km (purified protein [3]; R2 inactivated): 1500 ± 600 µM
- kcat (purified protein [3]; R2 inactivated): 0.30 ± 0.04 s⁻¹
- Km [4]: 2200 ± 200 µM
- kcat [4]: 0.72 ± 0.02 s⁻¹

B3: ATRR (ATR1R2) (Aspergillus nidulans FGSC A4; G1036A/Y1178F) (protein)
chain: T1 sequence (A0A1U8QWA2 1-1270) with G1036A, Y1178F
- Km (purified protein [3]; R2 inactivated): 2600 ± 500 µM
- kcat (purified protein [3]; R2 inactivated): 0.018 ± 0.001 s⁻¹
- Km [4]: 2200 ± 300 µM
- kcat [4]: 0.66 ± 0.02 s⁻¹

B4: ATRR (ATR1R2) (Aspergillus nidulans FGSC A4) (protein)
chain: T1 sequence (A0A1U8QWA2 1-1270)
- Km (purified protein [5]): 5800 ± 800 µM
- kcat (purified protein [5]): 0.023 ± 0.002 s⁻¹
- Km (purified protein [3]; R2 site): 240 ± 30 µM
- kcat (purified protein [3]; R2 site): 7.1 ± 0.3 s⁻¹
- Km (purified protein [6]): 2100 ± 200 µM
- kcat (purified protein [6]): 0.94 ± 0.03 s⁻¹
